Test results published in paper PMC6149950, “Designability of Aromatic Interaction Networks at E. coli Bacterioferritin B-Type Channels” (Molecules : A Journal of Synthetic Chemistry and Natural …, 2017).

Molecular target: the molecule itself
Assay: SEC; Superdex 200 10/300 GL, 50 mM NaH2PO4, 150 mM NaCl, pH 7.0, 4 °C, 0.5 mL/min; column calibrated with six standard proteins; self-assembly of dimers into the 24-mer cage

B1: bacterioferritin from E. coli (BFR) mutant N34W (natural protein)
chain: not shown
notes: bacterioferritin (BFR), E. coli, with N34W; made by site-directed mutagenesis of wild-type BFR in pET32 Ek/LIC
- stoichiometry N: 2

B2: bacterioferritin from E. coli (BFR) double mutant D132W/N34W (natural protein)
chain: not shown
notes: bacterioferritin (BFR), E. coli, with D132W and N34W; made by site-directed mutagenesis of wild-type BFR in pET32 Ek/LIC
- stoichiometry N: 2
